Test [1] has as its system CACNG1^Hu/Hu myofibers. Briefly: Antibody binding to single myofibers ex vivo. Details: species or system mouse. As to conditions: 100 nM antibody, 30 minutes; FIG. 2. As for the experimental part: (§1) Single myofibers were isolated from either wildtype mice, mice that were homozygous for the deletion of CACNG1 (referred to as CACNG1 knockout mice), or mice that were homozygous for the expression of human CACNG1 in place of mouse CACNG1 (referred to as CACNG1^Hu/Hu). The gastrocnemius muscle was removed, collagenase digested, and single myofibers were isolated, washed, and incubated overnight at 37° C. at 5% CO2, in DMEM+10% horse serum. Following overnight incubation, single myofibers were incubated with 100 nM of each CACNG1 antibody or an isotype control antibody for 30 minutes. Myofibers were then washed twice in DMEM+10% horse serum, and subsequently incubated with 10 μg/mL of fluorescent-conjugated secondary antibodies for 30 minutes, washed twice in DMEM+10% horse serum, and then fixed with 4% paraformaldehyde (PFA) for 15 minutes at room temperature. Single fibers were then washed twice with PBS, stained with Hoechst for 5 minutes, washed once more with PBS, then transferred to microscope slides, cover slipped, and imaged using a Zeiss LSM 710 confocal microscope.

For test [2], the system named is wildtype or CACNG1 knockout myofibers. Briefly: Antibody binding to single myofibers ex vivo. To be noted: 100 nM antibody, 30 minutes; FIG. 2. Details: species or system mouse. Here is the method:
as §1

Test [3] relates to C2C12 mouse myotubes. Briefly: High content imaging-based cell binding assay. As to conditions: Table 11-1, C2C12; NB = no binding detected. An excerpt:
(§2) To test the ability of anti-CACNG1 antibodies described herein to bind, internalize, and deliver payloads, cell binding and indirect cell killing assays were developed with primary human skeletal myoblasts (Cook Myosite Cat #SkMDC SK-1111), C2C12 mouse myoblasts (ATCC Cat #CRL-1772), and HEK293 cells engineered to express human and mouse CACNG1 (HEK293/hCACNG1 and HEK293/mCACNG1, respectively). To generate the HEK293/hCACNG1 and HEK293/mCACNG1 cell lines, FuGEGE 6 (Promega, Cat #E2691/5/3) was used to transfect HEK293HZ cells with a human CACNG1 (hCACNG1; amino acid M1-H222, Accession #NP_000718.1) or mouse CACNG1 (mCACNG1; amino acid M1-H223, Accession #NP_031608.1) expression vector. HEK293HZ is a highly transfectable subclone of HEK293 cells (1) authenticated via STIR (short tandem repeat) profiling to be 81% identical to HEK293 cells sourced from ATCC). The HEK293HZ cell line was maintained in DMEM+10% FBS+1% L-glutamine/penicillin/streptomycin, while HEK293/hCACNG1 and HEK293/mCACNG1 cell lines were maintained in DMEM+10% FBS+1% L-glutamine/penicillin/streptomycin+500 ug/mL G418. […]
(§3) Relative binding of anti-CACNG1 antibodies was assessed across the entire panel of cell lines via imaging analysis. […] Images were acquired with a 10× objective on the Opera Phenix (Perkin Elmer) and relative fluorescence units (RFU) was determined using Harmony software (Perkin Elmer).

Test [4] has as its target T1, HEK293/mCACNG1 (Mus musculus, UniProt O70578).
T1 construct: mouse CACNG1 (mCACNG1); expressed in transfected cells
T1 sequence (O70578 1-223): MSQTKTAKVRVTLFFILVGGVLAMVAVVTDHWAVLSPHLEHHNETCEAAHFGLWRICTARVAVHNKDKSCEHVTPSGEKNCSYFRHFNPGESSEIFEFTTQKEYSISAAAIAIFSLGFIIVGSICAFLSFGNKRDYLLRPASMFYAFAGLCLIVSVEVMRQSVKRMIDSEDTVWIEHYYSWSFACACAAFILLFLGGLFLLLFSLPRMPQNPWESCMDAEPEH
The test can be described thus: High content imaging-based cell binding assay. To be noted: Table 11-1, 293/mCACNG1; NB = no binding detected.
Source text: as §2, §3

Test [5] relates to HEK293 Hz. Briefly: High content imaging-based cell binding assay. Details: species or system human. As to conditions: Table 11-1, HEK293 Hz; NB = no binding detected.
Source text: as §2, §3

Test [6] deals with HEK293. Briefly: Indirect (secondary) cell killing assay. Type of test: cell-based, human. To be noted: Table 11-3; maximum % kill.
Source text: as §2, with “ATCC).” for “ATCC). The HEK293HZ cell line was maintained in DMEM+10% FBS+1% L-glutamine/penicillin/streptomycin, while HEK293/hCACNG1 and HEK293/mCACNG1 cell lines were maintained in DMEM+10% FBS+1% L-glutamine/penicillin/streptomycin+500 ug/mL G418.”
An indirect cell killing assay was used to assess the ability of anti-CACNG1 antibodies to internalize and deliver payloads into cells. In vitro cytotoxicity of the anti-CACNG1 antibodies alone or in combination with Fab anti-human Fc or Fab anti-mouse Fc secondary antibodies conjugated to Duocarmycin DM (Moradec, Cat #AH-202-DD-50 or Cat #AM-202-DD-50) were evaluated using the CellTiter-Glo 2.0 Assay Kit (Promega, Cat #G9243), in which the quantity of ATP present is used to determine the number of viable cells in culture. […]

The target of test [7] is T2, human CACNG1 nanodisc (Homo sapiens, UniProt Q06432).
T2 construct: PΔΔCt RE (C); Flag (C)
Briefly: Biacore binding kinetics of anti-CACNG1 antibodies to surface-captured human CACNG1 nanodisc. To be noted: 25° C., 1:1 binding model. As for the experimental part:
This Example relates to evaluation of binding kinetics of purified anti-CACNG1 antibodies described herein to a human CACNG1 nanodisc capture surface using real-time surface plasmon resonance biosensor technology with a Biacore T200 instrument.
Equilibrium dissociation constants (KD values) for nanodisc embedded human CACNG1 expressed with a C-terminal […] tag (human CACNG1 nanodisc; concentration 0.82 mg/ml) binding to purified anti-CACNG1 antibodies were determined using a real-time surface plasmon resonance biosensor technology with a Biacore T200 instrument. The CM5 Biacore sensor surface was derivatized by amine coupling with a monoclonal mouse anti-His antibody (Cytiva; Marlborough, MA). All Biacore binding studies were performed in a buffer composed of 0.01M HEPES, 0.15M NaCl, 1 mM CaCl2, 0.5 mM MgCl2, pH 7.4 (HBS-N++ running buffer). […]
The specific SPR-Biacore sensorgrams were obtained by a double referencing procedure. […] Kinetic association (ka) and dissociation […] rate constants were determined by fitting the real-time sensorgrams to a 1:1 binding model using Scrubber v2.0c curve fitting software. Binding dissociation equilibrium constants (KD) and dissociative half-lives (t %) were calculated from the kinetic rate constants as: […]

Here are results for two molecules from US20240182561A1, “CALCIUM VOLTAGE-GATED CHANNEL AUXILIARY SUBUNIT GAMMA 1 (CACNG1) BINDING PROTEINS AND CACNG1-MEDIATED DELIVERY TO SKELETAL MUSCLE” (Regeneron Pharmaceuticals, Inc., priority 2022, published 2024).

Usually EC50 stands for the midpoint of the concentration-response curve. Low readings indicate greater potency, high ones weaker potency.

T2 sequence (Q06432 whole entry): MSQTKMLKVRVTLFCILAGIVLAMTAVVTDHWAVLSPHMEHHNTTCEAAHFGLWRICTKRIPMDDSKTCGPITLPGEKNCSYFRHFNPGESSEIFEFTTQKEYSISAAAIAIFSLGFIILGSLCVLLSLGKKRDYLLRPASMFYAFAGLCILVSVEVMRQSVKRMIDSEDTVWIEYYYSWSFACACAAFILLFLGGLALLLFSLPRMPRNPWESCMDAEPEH

B1: H1M31941N (antibody)
heavy: QVQLVQSGAEVKKPGASVKVSCKASGYAFTTYGITWVRQAPGQGLEWMGWISAYNGNTNYAEKVQGRFTMTTDTSTNTAYMELRSLRSDDTAVYFCARKGHYGSGTYYNPFGFDFWGQGTMVTVSSAKTTPPSVYPLAPGSAAQTNSMVTLGCLVKGYFPEPVTVTWNSGSLSSGVHTFPAVLQSDLYTLSSSVTVPSSTWPSETVTCNVAHPASSTKVDKKIVPRDCGCKPCICTVPEVSSVFIFPPKPKDVLTITLTPKVTCVVVDISKDDPEVQFSWFVDDVEVHTAQTQPREEQFNSTFRSVSELPIMHQDWLNGKEFKCRVNSAAFPAPIEKTISKTKGRPKAPQVYTIPPPKEQMAKDKVSLTCMITDFFPEDITVEWQWNGQPAENYKNTQPIMDTDGSYFVYSKLNVQKSNWEAGNTFTCSVLHEGLHNHHTEKSLSHSPGK
light: EIMLMQSPGTLSLSPGERATLSCRASQSVSSSYLAWYQQKPGQAPRLLIYGASSRATDIPDRFSGSGSGTDFTLTISRLEPEDFAVYFCQQYYGSPWTFGQGTKVEIKRADAAPTVSIFPPSSEQLTSGGASVVCFLNNFYPKDINVKWKIDGSERQNGVLNSWTDQDSKDSTYSMSSTLTLTKDEYERHNSYTCEATHKTSTSPIVKSFNRGEC
As for B1, the “binding to CACNG1^Hu/Hu myofibers ex vivo” value in test [1] is reported as “demonstrated binding”. Besides, the “binding to wildtype or CACNG1 knockout myofibers” value in test [2] is listed as “did not bind”. The EC50 in test [3], in test [4] and in test [5] was over 100 nM each time. In addition, the “% KILL” value in test [6] came to 0.0%.

B2: H2aM31941N: anti-CACNG1 antibody; HCVR SEQ ID NO: 25, LCVR SEQ ID NO: 29, HC SEQ ID NO: 151, LC SEQ ID NO: 152 (antibody)
heavy: B1 heavy
light: B1 light
Turning to B2, in test [7], the “ka” value came out at 342000 M⁻¹ s⁻¹ and the “kd” value amounted to 0.000406 s⁻¹.
